# Test: yeast display, Sf9 membrane polyspecificity reagent, FACS + sequencing; frameworks hold sequencing errors
# Summary of the method: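 Sorting gates, low and high (top ~1%), were placed on anti-HA fluorescence to track expression and on streptavidin fluorescence to track reagent binding. A clone's polyreactivity label is taken from the gate it came out of. The reagent was 10% biotinylated, detergent-solubilized Sf9 membrane, applied for 1 hour at 4 °C to galactose-induced yeast display cells.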
row,Sequence,polyreactivity (PSR sort gate)
1,QVQLVESGGGIVQAGGSLRLSCAASGSTIGGYAMGWYRQAPGKERELVAAIRRSGDSTYYADSVKGRFTISRDNAKNTVYLQMNSLKPEDTAVYYCNTDRTHSYQYGGYDYWGQGTQVTVSS,low polyreactivity
2,QVQLVESGGGIVQAGGSLRLSCAASGSTIRYYAMGWYRQAPGKERELVAAITYSGTRTYYADSVKGRFTISRDNAKTTVYLQMNSLKPEDTAVYYCNAVAKHRGVGIYTPYDYWGQGTQVTVSS,high polyreactivity
3,QVQLVESGGGIVQAGGSLRLSCAASGSTLNSYVMGWYRQAPGKERELVATIRSGSSTNYADSVKGRFTISRDNAKYPDYLLMNSLKPEDTAVYSCAADAYSLCYDSWGQGTQVTVSS,low polyreactivity
4,QVQLVESGGGIVQAGGSLRLSCAASVFTFLHNTMGWYRQAPGKERELVAAISIGGRTYYADSVKGRFTISRDIAKKTVYLQMNSLKPEDTAVYYCAKLSGGQSPGYDYWGQGTQVTVSS,high polyreactivity
5,QVQLVESGGGIVQAGGSLRLSCAATGRIFTGYTMGWYRQAPGKERELVAAISQSGGRTYYADSVKGRFTISRDNAKHTVYLQMNSLKPEDTAVYYCAAVWSRTGYDYCGQGTQVTVSS,high polyreactivity
6,QVQLVESGGGIVQAGGSLRLSCAGSGSIVSGYTMGWYRQEPGKERELVAAITRSGGRTYYADSVKGRFTISRDYAKNTVYLQMNSLKPEDTSVYYCAAVDRRGANYNYWGQGTQVTVSS,high polyreactivity
7,QVQLVESGGGIVQAGGSLRLSCDASGSIFNYYTMGWYRQEPGKERELVAAISYRGGRTYYADSVKGRFTISRDNAKNTVYLQMNSLKPEDTAVYYCAAGWLLYVFFPREYYYWGQGTQVTVSS,high polyreactivity
8,QVQLVESGGGIVQAGGSLRLSSAASGRTFYVYTMGWYRQAPGKERELVAAITSGGSTNYADSVKGRFKISRDNAKNTVYLQMNSLKPEDTAVYYCAARFSTVFKRYYYWGQGTQLTVSS,high polyreactivity
9,QVQLVESGGGIVQAGGSLRLSWAASGRNFYRNAMGWYRQAPGKERELVAAISRSGGSTYYADSVKGRFTISRDNAKNTVYLQMNSLKAADTAVYYFNAYRYLQSGPPRYREHGSWGQGTQVNVSS,low polyreactivity
10,QVQLVESGGGIVQAGGSLSLRCAASGRIFITNAMGWNRQAPGKERELVAAIRRRGGNTYYADSVKGRFTISRDNGKNTVYLLMNSLKPEDSAVYYCAVYPRPYNYNYWGQGTQVTVSS,high polyreactivity
11,QVQLVESGGGIVQAGVSLRLSCAASGSTFWDNDMGWYRPAPGKERELVAVISWDDGSTYYADSVKGRFTISRDNAKNTVYLQMNSLKPEDTAVYYCAADAYYALFPSWTVGDCPYYYWGQGTQVTVSS,high polyreactivity
12,QVQLVESGGGIVQEGGSLRLSCAASGRTFGLNVMGWYRQAPGKERELVATISWSGGTTYYADSVKGRYTISRDNAKNTVYFQMKSLKPEDTGVYYCNRQVTWYPTGGYWGQGTQVTVSS,low polyreactivity
13,QVQLVESGGGIVQSGGSLRLSCDASGFIFGGNAMGWYIQAPGKERELVARISSGGITSYADSVKGRFTISRDNAKNTVYLHMNSQKPDDTAVYYCAARNGRIAWMNYWGQGTQVTVSS,low polyreactivity
14,QVQLVESGGGKVQAGGSLRLSCAASGNTFTSNALGWYRQAPGKERELVAAISISGSTNYADSVKGRFTISRDNAKNSVYLQMNSLKPEDTAVYSCAARVGYTAWRRYNYWGQGTQVTVSS,high polyreactivity
15,QVQLVESGGGKVQEGGSLRLSCAASGRTLAPYAMGWYRQAPGKERELVAISTIGGTTYYADSVKGRFTISRDNAKNTVYLQMNSLKPEDTAVYYGAADGNSTGVYLDGGEGFAYDYWGQGTQVTVSS,low polyreactivity
16,QVQLVESGGGLAQAGGSLRLSCAASGLIFYYNAMGWYRQAPGKERELVAAISSSGGRTYYADSVKGRFTISRDNAKNTVYLQMNSLKPEDTAVYYCAATSYGYGSRYDYWGQGTQVTVSS,high polyreactivity
17,QVQLVESGGGLAQAGGSLRLSCAASGRIFSVNVMGWYRQAPGKERELVAAITWSVGSTYYADSVKGRFTISRDNAKNTVYLQMNSLKPEDTAVFYCAARVPPVYGRVGGYHYWGQGTQVTVSS,low polyreactivity
18,QVQLVESGGGLDLAGGSLRLSCAASGRTCGYNAMGWYRQAPGKERELVATISWGGGSTYYADSVKGRFTISRDNAKNSVYLQMNSLKPEDTAVYYCNKVHYGRRHSYSGAIYGEDYWGQGTQVTVSS,high polyreactivity
19,QVQLVESGGGLDPAGGSLRLSCAASGSTFQYNAKGWYRQAPGKERELVAAISGSGGSTYYADSVKGRFTISRDNAKNTVYLQMNSLKPEDTAVYYCNADVSALWWPEEWYNASEFDYWGQGTQVTVSS,low polyreactivity
20,QVQLVESGGGLDQAEGSLRLSCAASGSKINHYARGWYRQAPRKERELVAAITKSGGSTYADSVKGRFTISRDNAKNTVYLKMNSRKPEDTAVYYCAAGRRIYGTKGRGDYWGQGTQVTVSS,low polyreactivity
21,QVQLVESGGGLDQAGGRLRLSCAASGFTFNYNAMGWYRQATGKERELVAAISRSGGRTYYADSVKGRFTISRDNAKNTVYLQMNSLKPEDTAVYYCAADSGTNGYDYWGQGTQVTVSS,high polyreactivity
22,QVQLVESGGGLDQAGGSHRLSCAASGRIFTYNAIGWYRQAPGKERELVAAISRRGGTTYYADSVKGRFTISRDNAKNTVYLQMNSLKPEDTAVYYCAAVVFTRGVTSRTVSRYDYWGQGTLVTVSS,high polyreactivity
23,QVQLVESGGGLDQAGGSLPLSCAASGLTFSSYAMGWYRQAPGKESELVATITSSGGDNTNYADSVKGRFTISRDNAKNTVYLQMNSLKPEDTAVYYCNKEGQQSYRWRMDYWGQGTQVTVSS,low polyreactivity
24,QVQLVESGGGLDQAGGSLRLICAASGSTFRYNAMGWYRQAPGKERELVAAISSSGGSTRYADSVKGRFTISRDNAKNTVYLQMNSLKPEDTAVYYCAVRFYDWRYYYWGQGTQVTVSS,high polyreactivity
25,QVQLVESGGGLDQAGGSLRLICAASGTTFSPYAMGWYRQAPGKQRELGANITISGGSTFYADSVKGRFTISRDYAKNTDYLQMKSLKPEDTAVDYCNADSLIRWLFTVVIFDYCGQGTQVTVSS,low polyreactivity
26,QVQLVESGGGLDQAGGSLRLSCAACGIIFYVYDMGGYRQAPGKERELVPISGSSTYYADSVKGRFTISRDNAKNSVYLQMNSLKPEDTAVYYWSADGVELYDYWGQGTQVTVSS,low polyreactivity
27,QVQLVESGGGLDQAGGSLRLSCAASGFIFAYNTMGWYRQAPGKERELVATIRWSGGRTYYADSVKGRFTISRDNAKNSVYLQMNSLKPEDTAVYYCAKRAFSYVGGQQDRKENYYYWGQGTQVTVSS,high polyreactivity
28,QVQLVESGGGLDQAGGSLRLSCAASGFIFTVYAMGWYRQAPGKEREVVAAISSGGSTYYADSVKGRFTISRDNAKNTVYLQMNSLKPEDTADYYCAAQPSYRYYKSYDSWGQGTQVTVSS,high polyreactivity
29,QVQLVESGGGLDQAGGSLRLSCAASGFTFAYNARGRYRQAPGKERELVAAITTRGGGTYYADSVKGRFTISRDNAKYTVYLQMNSLKPEDTAVYYCAAKKSRYPYNYWGQGTQVTVSS,high polyreactivity
30,QVQLVESGGGLDQAGGSLRLSCAASGFTFVDYDIGWYRQATGKERELVAAITYSGGSTSYADSVKGRFTISRDNSKTTFYLQMNSLKPEDTAVYYCAGEPVGEIMDYWGQGTQVTVSS,low polyreactivity
